Test results as given in paper PMC9636575, “MqsR is a noncanonical microbial RNase toxin that is inhibited by antitoxin MqsA via steric blockage of substrate binding” (The Journal of Biological Chemistry, 2022).

Biological target: T1, MqsR (E. coli, UniProt Q46865 1-98)
T1 construct: also called MqsR toxin; 15N-labeled MqsR
Assay: NMR titration; unlabeled MqsA(1-76) titrated into 15N-labeled MqsR (50 uM); 2D [1H,15N] HSQC; 298 K; 50 mM NaCl, 20 mM Na phosphate pH 6.5, 0.5 mM TCEP, 10% D2O
Conditions: both partners purified

T1 sequence (Q46865 whole entry): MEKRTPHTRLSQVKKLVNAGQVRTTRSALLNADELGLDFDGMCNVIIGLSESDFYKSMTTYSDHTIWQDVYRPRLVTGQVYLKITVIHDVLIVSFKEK

B1: N-terminal toxin-binding domain of MqsA (residues 1-76) (domain or fragment)
chain: MKCPVCHQGEMVSGIKDIPYTFRGRKTVLKGIHGLYCVHCEESIMNKEESDAFMAQVKAFRASVNAETVAPEFIVK
notes: also called MqsA_(1-76); unlabeled MqsA_(1-76)
binding result: binds
